According to publication doi:10.1101/2024.04.22.590616:
Like-named read-outs stand apart in the source and are kept apart here.

T1: Csm2;Psy3;Shu1;Shu2 (Saccharomyces cerevisiae?;Saccharomyces …, UniProt P40465;Q12318;P38751;P38957 1-213;1-242;1-150;1-223, |||)
T1 sequence 1: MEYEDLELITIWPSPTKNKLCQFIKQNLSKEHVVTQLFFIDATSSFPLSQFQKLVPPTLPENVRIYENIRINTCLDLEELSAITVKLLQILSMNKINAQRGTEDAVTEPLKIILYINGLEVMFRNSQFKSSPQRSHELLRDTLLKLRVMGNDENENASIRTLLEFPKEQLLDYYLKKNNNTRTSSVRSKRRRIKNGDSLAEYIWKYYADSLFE
T1 sequence 2: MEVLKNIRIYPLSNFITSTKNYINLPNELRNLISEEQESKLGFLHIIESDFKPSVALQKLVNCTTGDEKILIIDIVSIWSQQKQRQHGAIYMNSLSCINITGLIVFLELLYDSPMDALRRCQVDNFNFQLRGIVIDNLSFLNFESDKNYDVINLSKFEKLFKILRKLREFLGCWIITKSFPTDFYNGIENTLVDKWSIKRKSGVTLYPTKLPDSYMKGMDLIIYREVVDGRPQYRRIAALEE
T1 sequence 3: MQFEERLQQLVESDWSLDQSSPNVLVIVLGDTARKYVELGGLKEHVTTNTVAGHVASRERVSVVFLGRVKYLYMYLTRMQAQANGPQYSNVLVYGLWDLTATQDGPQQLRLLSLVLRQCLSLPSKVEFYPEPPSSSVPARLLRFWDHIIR
T1 sequence 4: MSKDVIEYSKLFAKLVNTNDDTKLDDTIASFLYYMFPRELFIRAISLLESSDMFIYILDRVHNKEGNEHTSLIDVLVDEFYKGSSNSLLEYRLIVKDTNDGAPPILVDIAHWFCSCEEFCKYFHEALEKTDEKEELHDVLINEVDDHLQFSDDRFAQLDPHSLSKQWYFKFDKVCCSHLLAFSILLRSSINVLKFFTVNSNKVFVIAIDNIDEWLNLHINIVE

T2: Csm2;Psy3 (Saccharomyces cerevisiae?;Saccharomyces …, UniProt P40465;Q12318 1-213;1-242, |)
T2 sequence 1: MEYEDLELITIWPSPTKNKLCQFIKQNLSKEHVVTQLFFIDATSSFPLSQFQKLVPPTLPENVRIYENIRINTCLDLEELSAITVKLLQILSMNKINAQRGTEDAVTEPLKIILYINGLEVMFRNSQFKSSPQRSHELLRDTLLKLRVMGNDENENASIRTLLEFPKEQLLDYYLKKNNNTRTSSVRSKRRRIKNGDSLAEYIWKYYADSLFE
T2 sequence 2: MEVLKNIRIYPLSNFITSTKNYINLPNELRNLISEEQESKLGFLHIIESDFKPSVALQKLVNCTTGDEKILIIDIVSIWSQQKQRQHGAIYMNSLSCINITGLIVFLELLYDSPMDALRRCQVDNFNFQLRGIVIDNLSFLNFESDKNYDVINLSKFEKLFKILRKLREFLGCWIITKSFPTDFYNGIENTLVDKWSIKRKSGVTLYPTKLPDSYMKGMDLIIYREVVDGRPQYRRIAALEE

B1: Fork (20nt) (dsDNA)
DNA 1: TTTTTTTTTTTTTTTTTTTTCTTGACAAGCTTGCGCACT
DNA 2: AGTGCGCAAGCTTGTCAAGGCACTTTTTTTTTTTTTTTT
B2: ds39 (dsDNA)
DNA 1: TTTTTTTTTTTTTTTTTTTTCTTGACAAGCTTGCGCACT
DNA 2: AGTGCGCAAGCTTGTCAAGAAAAAAAAAAAAAAAAAAAA
B3: 5'-overhang (20nt) (dsDNA)
DNA 1: TTTTTTTTTTTTTTTTTTTTCTTGACAAGCTTGCGCACT
DNA 2: AGTGCGCAAGCTTGTCAAG
B4: 3'-overhang (20nt) (dsDNA)
DNA 1: CTTGACAAGCTTGCGCACT
DNA 2: AGTGCGCAAGCTTGTCAAGGCACTTTTTTTTTTTTTTTT
B5: Fork (5nt) (dsDNA)
DNA 1: ACTGCCCTTACAGCACAGCGGTTTTT
DNA 2: TTTTTCCGCTGTGCTGTAAGGGCAGT
B6: ds21 (dsDNA)
DNA 1: ACTTACAGCACAGCGGTTTTT
DNA 2: AAAAACCGCTGTGCTGTAAGT
B7: Fork (10nt) (dsDNA)
DNA 1: ACTGCCCTTACAGCACAGCGGTTTTTTTTTT
DNA 2: TTTTTTTTTTCCGCTGTGCTGTAAGGGCAGT
B8: 3'-overhang (10nt) (dsDNA)
DNA 1: ACTGCCCTTACAGCACAGCGGTTTTTTTTTT
DNA 2: CCGCTGTGCTGTAAGGGCAGT
B9: 3'-overhang (5nt) (dsDNA)
DNA 1: ACTGCCCTTACAGCACAGCGGTTTTT
DNA 2: CCGCTGTGCTGTAAGGGCAGT
B10: ds26 (dsDNA)
DNA 1: ACTGCCCTTACAGCACAGCGGTTTTT
DNA 2: AAAAACCGCTGTGCTGTAAGGGCAGT
B11: ss60 (ssDNA)
DNA: TTTTTTTTTTTTTTTTTTTTTTTTTTTTTTCTTGACAAGCTTGCGCACTTAGGCCTCTAG

Columns and labels:
Test in all cases: fluorescence polarization
Csm2;Psy3;Shu1;Shu2 [1] = target: T1, Csm2;Psy3;Shu1;Shu2
Csm2;Psy3 [2] = target: T2, Csm2;Psy3
Csm2;Psy3;Shu1;Shu2 [3] = target: T1, Csm2;Psy3;Shu1;Shu2; remark: listed apart in the source
Csm2;Psy3 [4] = target: T2, Csm2;Psy3; remark: listed apart in the source
Csm2;Psy3;Shu1;Shu2 [5] = target: T1, Csm2;Psy3;Shu1;Shu2; remark: listed apart in the source
Csm2;Psy3 [6] = target: T2, Csm2;Psy3; remark: listed apart in the source
Csm2;Psy3;Shu1;Shu2 [7] = target: T1, Csm2;Psy3;Shu1;Shu2; remark: listed apart in the source
Csm2;Psy3 [8] = target: T2, Csm2;Psy3; remark: listed apart in the source
Csm2;Psy3;Shu1;Shu2 [9] = target: T1, Csm2;Psy3;Shu1;Shu2; remark: listed apart in the source

Binder | Kd (Csm2;Psy3;Shu1;Shu2 [1]) [nM] | Kd (Csm2;Psy3 [2]) [nM] | Kd (Csm2;Psy3;Shu1;Shu2 [3]) [nM] | Kd (Csm2;Psy3 [4]) [nM] | Kd (Csm2;Psy3;Shu1;Shu2 [5]) [nM] | Kd (Csm2;Psy3 [6]) [nM] | Kd (Csm2;Psy3;Shu1;Shu2 [7]) [nM] | Kd (Csm2;Psy3 [8]) [nM] | Kd (Csm2;Psy3;Shu1;Shu2 [9]) [nM]
B1 | 2060 ± 130 | 1350 ± 60 | 970 ± 100 | 780 ± 50 | 860 ± 70 | 740 ± 50 | 1030 ± 120 | 750 ± 70 | 
B2 |  | 1490 ± 130 | 5800 ± 400 | 1460 ± 120 | 6850 ± 490 | 1540 ± 80 | 7410 ± 610 | 1450 ± 130 | 7400 ± 510
B3 | 2440 ± 200 | 1180 ± 100 | 2420 ± 220 | 760 ± 90 | 1580 ± 160 | 430 ± 70 | 1150 ± 110 | 950 ± 120 | 
TTTTTTTTTTTTTTTTTTTTCTTGACAAGCTTGCGCACT (ssDNA) [ss39] | 2760 ± 80 | 1650 ± 180 | 2370 ± 220 | 1980 ± 200 | 3190 ± 270 | 1490 ± 180 | 2770 ± 250 | 1320 ± 120 | 
B4 | 2820 ± 190 | 1920 ± 280 | 2710 ± 220 | 680 ± 50 | 2530 ± 170 | 1600 ± 130 |  | 1270 ± 120 | 
ACTTACAGCACAGCGGTTTTT (ssDNA) [ss21] | 3430 ± 160 |  |  |  |  |  |  |  | 
B5 | 4080 ± 190 |  |  |  |  |  |  |  | 
B6 | 6210 ± 190 |  |  |  |  |  |  |  | 
B7 | 5840 ± 320 |  |  |  |  |  |  |  | 
B8 | 4500 ± 120 |  |  |  |  |  |  |  | 
ACTGCCCTTACAGCACAGCGGTTTTTTTTTT (ssDNA) [ss31] | 3310 ± 70 |  |  |  |  |  |  |  | 
B9 | 4860 ± 280 |  |  |  |  |  |  |  | 
B10 | 7230 ± 140 |  |  |  |  |  |  |  | 
B11 | 2370 ± 130 |  | 2010 ± 260 |  | 2400 ± 230 |  | 2370 ± 290 |  | 
ACTGCCCTTACAGCACAGCGGTTTTT (ssDNA) [ss26] | 3540 ± 240 |  |  |  |  |  |  |  | 
